Data as given in publication PMC9537153 (Nature Communications, 2022).
Read-outs that look alike come from different tables or passages of the source.

T1: p19, C-terminal 19 kDa fragment of Merozoite Surface Protein 1 (MSP-1), Plasmodium falciparum 3D7 allele, … (Plasmodium falciparum 3D7)
T1 chain: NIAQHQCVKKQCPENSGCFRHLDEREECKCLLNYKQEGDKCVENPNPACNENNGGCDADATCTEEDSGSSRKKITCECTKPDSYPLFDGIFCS

T2: biotinylated p19 (3D7 allele, non-glycosylated) with C-terminal Avi-tag and His6 tag (Plasmodium falciparum 3D7, enzymatically biotinylated on a C-terminal AviTag)
T2 chain: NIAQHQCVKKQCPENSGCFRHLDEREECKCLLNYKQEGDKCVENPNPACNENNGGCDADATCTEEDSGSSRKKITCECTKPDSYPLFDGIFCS


How the values were obtained:
[1] = molecular target: T1, p19, C-terminal 19 kDa fragment of …
[2] = molecular target: T3, full-length Merozoite Surface Protein 1 (MSP-1), Plasmodium falciparum 3D7 allele, non-glycosylated, His6 (Plasmodium falciparum 3D7, UniProt Q8I0U8)
[3] = molecular target: T3, full-length Merozoite Surface Protein 1 …; assay: ELISA; conditions: both partners purified
[4] = molecular target: T2, biotinylated p19 (3D7 allele, …); assay: BLI; conditions: both partners purified

T3 sequence (Q8I0U8 whole entry, looked up): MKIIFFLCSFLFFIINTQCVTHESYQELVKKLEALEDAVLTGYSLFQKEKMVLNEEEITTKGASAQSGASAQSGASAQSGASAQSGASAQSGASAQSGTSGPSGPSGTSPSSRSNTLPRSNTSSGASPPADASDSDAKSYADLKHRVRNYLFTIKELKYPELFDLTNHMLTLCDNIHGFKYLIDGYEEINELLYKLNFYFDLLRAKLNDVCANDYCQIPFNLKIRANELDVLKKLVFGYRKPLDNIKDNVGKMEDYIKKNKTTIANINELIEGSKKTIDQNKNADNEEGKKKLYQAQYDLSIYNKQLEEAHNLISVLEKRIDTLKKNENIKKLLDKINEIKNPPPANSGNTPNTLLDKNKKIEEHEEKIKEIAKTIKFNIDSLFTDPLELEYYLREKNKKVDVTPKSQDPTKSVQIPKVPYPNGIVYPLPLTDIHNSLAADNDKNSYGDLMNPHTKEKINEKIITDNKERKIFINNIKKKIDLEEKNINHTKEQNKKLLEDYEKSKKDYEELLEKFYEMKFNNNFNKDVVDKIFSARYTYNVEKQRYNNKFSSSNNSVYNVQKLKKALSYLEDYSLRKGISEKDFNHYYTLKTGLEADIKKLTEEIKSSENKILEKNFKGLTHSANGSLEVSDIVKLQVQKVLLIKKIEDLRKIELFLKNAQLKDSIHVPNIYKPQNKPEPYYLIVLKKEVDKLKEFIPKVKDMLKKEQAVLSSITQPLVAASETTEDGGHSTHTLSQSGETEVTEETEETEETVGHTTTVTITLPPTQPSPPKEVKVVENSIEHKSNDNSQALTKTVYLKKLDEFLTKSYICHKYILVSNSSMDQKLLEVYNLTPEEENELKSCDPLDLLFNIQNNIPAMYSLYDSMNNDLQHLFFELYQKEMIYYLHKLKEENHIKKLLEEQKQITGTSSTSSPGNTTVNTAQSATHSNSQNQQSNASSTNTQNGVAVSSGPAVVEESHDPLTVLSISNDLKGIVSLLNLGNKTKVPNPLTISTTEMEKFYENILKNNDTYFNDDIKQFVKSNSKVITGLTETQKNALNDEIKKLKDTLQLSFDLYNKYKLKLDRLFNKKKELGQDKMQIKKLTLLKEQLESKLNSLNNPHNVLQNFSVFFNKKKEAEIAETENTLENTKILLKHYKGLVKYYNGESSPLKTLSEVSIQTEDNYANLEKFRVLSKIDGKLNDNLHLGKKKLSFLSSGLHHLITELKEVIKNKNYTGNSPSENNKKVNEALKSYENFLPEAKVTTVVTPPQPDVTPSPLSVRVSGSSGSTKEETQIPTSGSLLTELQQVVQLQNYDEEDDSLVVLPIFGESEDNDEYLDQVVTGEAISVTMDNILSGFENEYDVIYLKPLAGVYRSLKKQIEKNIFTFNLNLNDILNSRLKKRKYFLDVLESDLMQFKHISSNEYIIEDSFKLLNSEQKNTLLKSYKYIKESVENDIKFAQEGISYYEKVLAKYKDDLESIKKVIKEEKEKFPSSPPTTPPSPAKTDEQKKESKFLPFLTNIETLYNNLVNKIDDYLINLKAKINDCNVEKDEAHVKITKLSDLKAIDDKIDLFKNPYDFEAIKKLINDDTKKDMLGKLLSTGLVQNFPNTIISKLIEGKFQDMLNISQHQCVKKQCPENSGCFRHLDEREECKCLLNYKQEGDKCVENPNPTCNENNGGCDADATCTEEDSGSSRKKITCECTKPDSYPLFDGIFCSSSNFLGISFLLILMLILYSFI

Row | Binder | Kd [1] [nM] | binding result [2] | also measured
1 | 42C5 (antibody, V domains shown) VH: EVQLVESGGGVVQPGGSLRLSCAASGFIFSSYSMHWVRQAPGKGLEWVAFIRYDGNRKYYGDSVKGRFTVSRDNSMDTLSLHMTNLRPEDTAIYYCARVGWTWVSEPVDVWGEGATVTVAS VL: QSVLTQPPSASGTPGQGVSISCSGSRSNVGTNYVYWYQQVPGTAPKLLILRNTQRPSGVPDRFSGSKSGSSASLAISGLRSADEGDYYCAVWDSNLDHVVFGGGTKVTVL | 3.29 | binds | 
2 | 42A9 (antibody, V domains shown) VH: QVQVVESGGGVVQPGGSLTLSCRASGFIFSDYGLHWVRQPPGKGLEWVALINYDGRNKYYADSVRGRFTISRDNSKNTLSLQMSSLRSGDTAIYFCARVGAKWASEPMDVWGRGTTVTVSS VL: QSVLTQPPSASGTPGQRVTISCSGSTSNVGTNFVYWYHQRPGTAPKLLIYRNDERPSGVPDRISGSKSGASASLAISGLRSEDEGDYHCSAWDGSLRRLVFGGGTKLTVL | 0.73 | binds | 
3 | 42C11 recombinant human IgG1 (hmAb 42C11) (antibody, V domains shown, IgG1; source: Expi293F cells, heavy- and light-chain plasmids co-transfected 1:1, purified (Protein A agarose, SEC)) VH: QVQLVESGGGVVQPGGSLRLSCAASGFIFSSYSMHWVRQAPGKGLEWVAFIRYDGRREYYADSVKGRFTVSRDNIMNTVFLQMNNLRPEDTATYYCAKVGWTWVSEPADVWGEGATVTVSS VL: QSVLTQPPSTSGTPGQGVTISCSGSRSNVGTNYVYWYQQIPGRAPKLLINRNTQRPSGVPVRFSGSKSGTTAFLAITGLRSEDEADYFCAVWDGDLSGVIFGGGTKVTVL |  |  | binding result [3]: binds
4 | 42C11 Fab (naturally acquired human monoclonal antibody to p19) (Fab, V domains shown, source: Expi293F cells, transfected, purified from supernatant (Ni Sepharose Excel, SEC)) VH: QVQLVESGGGVVQPGGSLRLSCAASGFIFSSYSMHWVRQAPGKGLEWVAFIRYDGRREYYADSVKGRFTVSRDNIMNTVFLQMNNLRPEDTATYYCAKVGWTWVSEPADVWGEGATVTVSS VL: QSVLTQPPSTSGTPGQGVTISCSGSRSNVGTNYVYWYQQIPGRAPKLLINRNTQRPSGVPVRFSGSKSGTTAFLAITGLRSEDEADYFCAVWDGDLSGVIFGGGTKVTVL |  |  | Kd [4]: 1.84 nM; koff [4]: 0.00047 s⁻¹; kon [4]: 255000 M⁻¹ s⁻¹
5 | 42D7 (antibody, V domains shown) VH: EVQMVESGGGVVRPGGSLGLSCTASGFTFSNFGIYWVRQAPGKGLEWVAFTRYDGRNKYYGDSVKGRFTISRDNSKNTLYLQMNRLRHEDTGTYYCAKVGATWASEPMDVWGKGTTVMVSS VL: QSVLTQPPSVSGTPGQRVTIYCSGSTSNVGTNFVYWYKQLPGAAPKLLISRNTQRPSGVPDRFSGSKSGTSAFLAISGLRSEDEASYHCSVWDGDLTGLVFGGGTKLTVL | 6.2 | binds | 
